We go through 41 sequences from the nanobody polyreactivity screen of Harvey et al. (2022).

The series in a line: yeast display, Sf9 membrane polyspecificity reagent, FACS + sequencing; frameworks hold sequencing errors. Summed up: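 Using colony PCR, genes from sorted yeast display clones were amplified, then sequenced on MiSeq at 2 × 250 and filtered by CDR length. The clones had been stained with 10% biotinylated, detergent-solubilized Sf9 membrane reagent for 1 hour at 4 °C and sorted by FACS into low and high (top ~1%) gates on anti-HA and streptavidin fluorescence. Polyreactivity labels come from the gate of origin.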
Turning to “QVQLVESGGGLVQAGGSLRLSCAASGSTFTGYDMGWYRQAPGKERELVAAISISGGRTFYADSVKGRFTISRDNAKNTVYLQMNSLKPEDTAVYYCAAYQRGSKYSFDYWGQGTQVTVSS”, the “polyreactivity (PSR sort gate)” value is “high polyreactivity”.

On to “QVQLVESGGGLVQAGGSLRLSCAASGSTFTGYTMGWYRQAPGKERELVAAISRRGTSTYYADSVKGRFTISRDNAKNSVYLQMNSLKPEDTAVYYCADYQGQKGYDYWGQGTQVTVSS”, for which the “polyreactivity (PSR sort gate)” value is “high polyreactivity”.

Turning to “QVQLVESGGGLVQAGGSLRLSCAASGSTFTGYTMGWYRQAPGKERELVAAISRRGTSTYYADSVKGRFTISRDNAKNTVYLQMNSLKPEDTAVYYCAAYQGQKGYDYWGQGTQVTVSS”, the “polyreactivity (PSR sort gate)” value was “high polyreactivity”.

Consider “QVQLVESGGGLVQAGGSLRLSCAASGSTFTGYVLGWYRQAPGKERELVAAITSSVDGTYYADSVKGRFTISRDIAKNTVYLQMNSLKPEDTAVYYCAADLWKGVYPSYDYWGQGTQVTVSS”, for which the “polyreactivity (PSR sort gate)” value is reported as “low polyreactivity”.

In the case of “QVQLVESGGGLVQAGGSLRLSCAASGSTFTGYVMGWYRQAPGKERELVAAITSSVDGTYYADSVKGRFTISRDNAKNTVYLQMNSLKPEDTAVYDCAADLWKGVYPSYDYWGQGTQVTVSS”, the “polyreactivity (PSR sort gate)” value is reported as “low polyreactivity”.

For the sequence “QVQLVESGGGLVQAGGSLRLSCAASGSTFTINVMGWYRQAPGKERELVAAIHGGGRPNYADSVKGRFTISRDNAKKTVYLQMNSLKPEDTAVYYCAADGLSNVRQMDYWGQGTQVTVSS”, the “polyreactivity (PSR sort gate)” value is listed as “low polyreactivity”.

As to “QVQLVESGGGLVQAGGSLRLSCAASGSTFTKYDMGWYRQAPGKERELVAAIRSGGDTNYADSVKGRFTISRDNAKNTVYLQMNSLKPEDTAVYYCAAERGPTNHTSYPWYEYHYWGQGTQVTVSS”, the “polyreactivity (PSR sort gate)” value is reported as “low polyreactivity”.

On to “QVQLVESGGGLVQAGGSLRLSCAASGSTFTLNAMGWYRQAPGKECELVADISWSSGRTYYADSVKGRFTISRDNAKNTVYLHMNSLKPEDTAVYYCATDDFWNVKFYAYYPEFDYWGQGTQVTVSS”, for which the “polyreactivity (PSR sort gate)” value is on record as “low polyreactivity”.

Take “QVQLVESGGGLVQAGGSLRLSCAASGSTFTLNAMGWYRQAPGKERELVARISSGGGSTYYADSVNGRFTISRDNAKNTVYLQMNSLKPEDTAVYYCNAGNYRDKSYYWGQGTQVTVSS”: the “polyreactivity (PSR sort gate)” value was “low polyreactivity”.

Take “QVQLVESGGGLVQAGGSLRLSCAASGSTFTLYAMGWYRQAPGKERELVAAISWSGDTTYYADSVKGRFTISRDNAKNTVYLQMNSLKPEDTAVYYCAADWYTSYYYEHESWGQGTQVTVSS”: the “polyreactivity (PSR sort gate)” value is given as “high polyreactivity”.

As for “QVQLVESGGGLVQAGGSLRLSCAASGSTFTLYAMGWYRQAPGKERELVAAITWRGGSTFYADSVKGRFTISRDNAKNTVYLQMNSLKPEDTAVYYCAADYYSYVVGRIDYWGQGTQVTVSS”, the “polyreactivity (PSR sort gate)” value is given as “high polyreactivity”.

As for “QVQLVESGGGLVQAGGSLRLSCAASGSTFTLYAMGWYRQAPGKERELVATITGSGGSTNYADSVKGRFTISRDNAKNTVDLQMNSLKPEDTAVYYCAKRVQQSTWYGYGIGYEYWGQGTQVTVSS”, the “polyreactivity (PSR sort gate)” value is given as “high polyreactivity”.

In the case of “QVQLVESGGGLVQAGGSLRLSCAASGSTFTNNGMGWYRQAPGKERELVATISWDGDSTYYADSVKGRFTISRDNAKNTVYLQMISQKPEDTAVYYCAADEWGSDSALNFEYWGQGTQVTVSS”, the “polyreactivity (PSR sort gate)” value is “low polyreactivity”.

Consider “QVQLVESGGGLVQAGGSLRLSCAASGSTFTNYAMGWYRQAPGKERELVAAISSSGGRTYYADSVKGRFTISRDNAKNTVYLQMNSLKPEDTAVYYCARVVRPSVGDYWGQGTQVTVSS”, for which the “polyreactivity (PSR sort gate)” value is “high polyreactivity”.

In the case of “QVQLVESGGGLVQAGGSLRLSCAASGSTFTNYAMGWYRQAPGKERELVAGISRSGGTTYYADSVKGRFTISRDNVKNTVYLQMNSLKPEDTAVYYCAAVGYFGGYRYDYWGQGTQVTVSS”, the “polyreactivity (PSR sort gate)” value was “high polyreactivity”.

Consider “QVQLVESGGGLVQAGGSLRLSCAASGSTFTPNAMGWYRQAPGKERELVAAINWSDSSTYYADSVKGRFTISRDNAKNTVYLQMNSLKPEDTAVYFCAAAAQYGQLQVPVYYWGQGTQVTVSS”, for which the “polyreactivity (PSR sort gate)” value is listed as “low polyreactivity”.

Consider “QVQLVESGGGLVQAGGSLRLSCAASGSTFTPNAMGWYRQAPGKERELVAASRYTGVGTYYADSVKGRFTISRDNAKNTVYLQMNSPKPEDTAVYYCNRVSRYYNYDYWGQGTQVTVSS”, for which the “polyreactivity (PSR sort gate)” value is given as “high polyreactivity”.

With “QVQLVESGGGLVQAGGSLRLSCAASGSTFTPNVMGWSRQAPGKERELVAAINSSGGSTFYADSVKGRFTISRDNAKNTVYLQMNSLKPEDTAVYYCAASWHTPTVYDEYYYWGQGTQVTVSS”, the “polyreactivity (PSR sort gate)” value was “low polyreactivity”.

For “QVQLVESGGGLVQAGGSLRLSCAASGSTFTPYAMGWNRQAPGKERELVAAIRRGGSTNYADSVKGRFTISRDNEKNTVYLQMNSLKPEDTAVYYCAATKRRFVKFDYWGQGTQVTVSS”, the “polyreactivity (PSR sort gate)” value is “low polyreactivity”.

In the case of “QVQLVESGGGLVQAGGSLRLSCAASGSTFTQYVMGWYRQAPGKERELVAAISDSGSTYYADSVKGRFTISRDNAKNTVYLQMNSLKPEDTAVYYCNADDVDFYYGYGYLEYDYWGQGTQVTVSS”, the “polyreactivity (PSR sort gate)” value is recorded as “low polyreactivity”.

Consider “QVQLVESGGGLVQAGGSLRLSCAASGSTFTRNAMGWYRQAPGKERELVAAISSSGGRTYYADSVKGRFTISRDNAKNTVYLQMNSLKPEDTAVYYCAAGIRTSAGYDYWGQGTQVTVSS”, for which the “polyreactivity (PSR sort gate)” value was “high polyreactivity”.

Turning to “QVQLVESGGGLVQAGGSLRLSCAASGSTFTRNAMGWYRQAPGKERELVAVISSRGGRTYYADSVKGRFTISRDNAKNTVYLQMNSLKPEDTAVYYCAARTWVLYTWRSYYEYYYWGQGTQVTVSS”, the “polyreactivity (PSR sort gate)” value is “high polyreactivity”.

With “QVQLVESGGGLVQAGGSLRLSCAASGSTFTRYAMGWYRQAPGKERELVAAITRSGGGTYYADSVKGRFTSSRDNAKNTVYLQLNSLKPEDTAVYYCAKDIVFYGSPGYGYWGQGTQVTVSS”, the “polyreactivity (PSR sort gate)” value was “high polyreactivity”.

Regarding “QVQLVESGGGLVQAGGSLRLSCAASGSTFTRYDMGGYRHAPGKERELVAAISKSGGSTYYADSVKGRFTISRDNAKNTVYLQMNSLKPEDTAVYYCARGSTKYHIYSLDYWGQGTQVTVSS”, the “polyreactivity (PSR sort gate)” value was “low polyreactivity”.

Consider “QVQLVESGGGLVQAGGSLRLSCAASGSTFTRYGMGWYRQAPGKERELVAAITTSGSSTYYADSVKGRFTISRDNAKNTVYLQMNSLKPEDTAVYYCAADWSSWGFDYWGQGTQVTVSS”, for which the “polyreactivity (PSR sort gate)” value is “low polyreactivity”.

On to “QVQLVESGGGLVQAGGSLRLSCAASGSTFTSNTRWYRQAPGKERELVAAISNRGGGTYYADSVKGRFTISRDNAKNTVYLQMNSLKPEDTAVYYCNAAGYARKTAYYYWGQGTQVTVSS”, for which the “polyreactivity (PSR sort gate)” value is “high polyreactivity”.

“QVQLVESGGGLVQAGGSLRLSCAASGSTFTSYAMGWYIQAPGKERELVAAIRYRGDGTYYADSVKGRFTISRDNAKNTVYLQMNSLKPEDTAVYYCAADTTLQAFIRYRPIGSYDSWGQGTQVTVSS”: the “polyreactivity (PSR sort gate)” value was “low polyreactivity”.

Turning to “QVQLVESGGGLVQAGGSLRLSCAASGSTFTSYAMGWYRQAPGKERELVASISRSGGSTYYADSVKGRFTISRDNAKNTVYLQMNSLKPEDTAVYYCAVRSVTWHGYWGQGTQVTVSS”, the “polyreactivity (PSR sort gate)” value is recorded as “high polyreactivity”.

On to “QVQLVESGGGLVQAGGSLRLSCAASGSTFTTNAMGWYRQAPGKERELVAAISWSGTTTYYADSVKGRFTISRDNAKNTVYLQMNSLKPEDTAVYYCAAQVVSGTVAYLDFGYWGQGTQVTVSS”, for which the “polyreactivity (PSR sort gate)” value was “low polyreactivity”.

With “QVQLVESGGGLVQAGGSLRLSCAASGSTFTTNVMGWYRQAPGKERELVAAISWSSGSTYYADSVKGRFTISRDNAKNTVYLQMNSLKPEDTAVYYCAARLVIFYPYSRYYYWGQGTQVTVSS”, the “polyreactivity (PSR sort gate)” value is on record as “high polyreactivity”.

Take “QVQLVESGGGLVQAGGSLRLSCAASGSTFTTYAMGWYRQAPGKEREFVASIRWRGGHTYYADSVKGRFTISRDNAKNTVYLQMNSLKPEDTAVYFCARRVDYISSKYGYWGQGTQVTVSS”: the “polyreactivity (PSR sort gate)” value is “high polyreactivity”.

Take “QVQLVESGGGLVQAGGSLRLSCAASGSTFTVNAMGLYRQAPGKERELVAAINWSGGSTYYADSVKGRFTISRDHAKNTVYLQMNSLKPEDTAVYYCNKDREPYGYWSFDYWGQGTQVTLSS”: the “polyreactivity (PSR sort gate)” value is given as “low polyreactivity”.

In the case of “QVQLVESGGGLVQAGGSLRLSCAASGSTFTVNAMGWYRQAPGKERELVAVIRKSGTSTYYADSVKGRFSISRDNAKNTVYLQMNSLKPEDTAVYYCAAGGPSTLDDYWGQGTQVTVSS”, the “polyreactivity (PSR sort gate)” value is “low polyreactivity”.

As to “QVQLVESGGGLVQAGGSLRLSCAASGSTFTWYAMGWYRQAPGKERELVAAISRGGSTNYADSVKGRFTISRDNAKNTVYLQMNSLKPEDTAVYYCAAESYWRDDYWGQGTQVTVSS”, the “polyreactivity (PSR sort gate)” value is “low polyreactivity”.

In the case of “QVQLVESGGGLVQAGGSLRLSCAASGSTFTWYAMGWYRQAPGKERELVADISYGGGSTYYADSVKGRFTISRDNAKNTVYLQMNSLKPEDTAVYYCAADYRWYQRGNPMDYWGQGTQVNVSS”, the “polyreactivity (PSR sort gate)” value is “low polyreactivity”.

On to “QVQLVESGGGLVQAGGSLRLSCAASGSTFTWYAMGWYRQAPGKERELVADISYGGGSTYYADSVKGRFTISRDNAKNTVYLQMNSLKPEDTAVYYCAVDDGFAYSYDWTYRYAEYYYWGQGTQVTVSS”, for which the “polyreactivity (PSR sort gate)” value was “low polyreactivity”.

For “QVQLVESGGGLVQAGGSLRLSCAASGSTFTWYTMGWYRQAPGKERELVAAISSSGGSTYYADSVKGRFTISRDNAKNTVYLQMNSLKPEDTAVYYCARRFPSPLYTRYDYWGQGTQVTVSS”, the “polyreactivity (PSR sort gate)” value is “high polyreactivity”.

For “QVQLVESGGGLVQAGGSLRLSCAASGSTFTYNAMGWYRQAPGKERELVASISSGTTTYYADSVKGRFTISRDNAKNTVYLQMNCLKPEDTAVYYCAVDSWSRVQGWLAHYYDYWGQGTQVTVSS”, the “polyreactivity (PSR sort gate)” value is on record as “low polyreactivity”.

In the case of “QVQLVESGGGLVQAGGSLRLSCAASGSTFTYNTMGWYRQAPGKERELVAAISWGGGGTYYADSVKGRFTISRDNAKNSVYLQMNSLKRVDTAVYYCKADPWWDYGTFDYWGQGTQVTVSS”, the “polyreactivity (PSR sort gate)” value is “low polyreactivity”.

Take “QVQLVESGGGLVQAGGSLRLSCAASGSTFTYNTMGWYRQAPGKERELVAGITKSGGSTYYADSVKGRFTISRDTAKNTVYLQMNSLKPEDTAVYYCATSTSRRYGSRHNYWGQGTQVTVSS”: the “polyreactivity (PSR sort gate)” value is on record as “high polyreactivity”.

Regarding “QVQLVESGGGLVQAGGSLRLSCAASGSTFTYYAMGWYRQAPGKEREFVATIRRSGGRTNYADSVKGRFTISRDNAKNTVYLQMNSLKPEDTAVYYCNARYTNVRGFDYWGQGTQVTVSS”, the “polyreactivity (PSR sort gate)” value is on record as “high polyreactivity”.
